In IntAct's records for PubMed 21642537:
Values belong to the substance of their own block, whether it stands above or below them.

How the values were obtained:
PKD2, Q13563-1 [1] = biological target: T1, PKD2, Q13563-1
T1 sequence: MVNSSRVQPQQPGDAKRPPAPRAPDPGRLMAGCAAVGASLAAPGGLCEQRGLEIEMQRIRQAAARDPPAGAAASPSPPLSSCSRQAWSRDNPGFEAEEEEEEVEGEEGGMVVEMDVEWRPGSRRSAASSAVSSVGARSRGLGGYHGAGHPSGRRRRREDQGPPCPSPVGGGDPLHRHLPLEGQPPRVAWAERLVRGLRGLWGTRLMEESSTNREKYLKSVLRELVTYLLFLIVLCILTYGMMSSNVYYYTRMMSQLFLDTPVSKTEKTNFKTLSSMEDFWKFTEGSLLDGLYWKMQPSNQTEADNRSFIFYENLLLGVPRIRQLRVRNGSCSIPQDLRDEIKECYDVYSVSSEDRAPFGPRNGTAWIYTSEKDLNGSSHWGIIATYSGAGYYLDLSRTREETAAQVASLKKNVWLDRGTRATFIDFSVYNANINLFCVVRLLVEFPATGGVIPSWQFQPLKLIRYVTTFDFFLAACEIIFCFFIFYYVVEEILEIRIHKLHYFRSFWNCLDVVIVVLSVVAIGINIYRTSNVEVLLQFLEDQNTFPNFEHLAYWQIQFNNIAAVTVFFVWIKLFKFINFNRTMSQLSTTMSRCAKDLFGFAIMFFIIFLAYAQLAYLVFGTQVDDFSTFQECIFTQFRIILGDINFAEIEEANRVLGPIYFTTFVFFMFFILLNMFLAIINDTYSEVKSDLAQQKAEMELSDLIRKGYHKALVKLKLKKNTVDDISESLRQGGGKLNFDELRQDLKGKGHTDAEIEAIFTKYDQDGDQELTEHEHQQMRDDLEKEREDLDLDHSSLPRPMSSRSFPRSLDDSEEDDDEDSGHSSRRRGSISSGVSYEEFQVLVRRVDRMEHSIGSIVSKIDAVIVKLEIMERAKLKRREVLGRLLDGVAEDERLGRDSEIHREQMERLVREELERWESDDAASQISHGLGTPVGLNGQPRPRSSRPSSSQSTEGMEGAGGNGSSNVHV

PKD2, Q13563-1 [2] = biological target: T1, PKD2, Q13563-1; remark: listed apart in the source

Substance: Polycystin-1 (Homo sapiens) (from UniProt P98161-3) L4228A;N4229A
effect of a mutation on the interaction (PKD2, Q13563-1 [1]): decreasing interaction strength

Substance: Polycystin-1 (Mus musculus), O08852 L4229A;L4233A
effect of a mutation on the interaction (PKD2, Q13563-1 [2]): decreasing interaction strength

Substance: Polycystin-1 (Homo sapiens) (from UniProt P98161-3) F4225A;R4227A
effect of a mutation on the interaction (PKD2, Q13563-1 [1]): decreasing interaction strength

Substance: Polycystin-1 (Homo sapiens) (from UniProt P98161-3) D4234A;Y4236A
effect of a mutation on the interaction (PKD2, Q13563-1 [1]): decreasing interaction strength

Substance: Polycystin-1 (Homo sapiens) (from UniProt P98161-3) D4234R
effect of a mutation on the interaction (PKD2, Q13563-1 [1]): decreasing interaction strength

Substance: Polycystin-1 (Homo sapiens) (from UniProt P98161-3) L4238A;L4242A
effect of a mutation on the interaction (PKD2, Q13563-1 [1]): disrupting interaction strength

Other lines, results leading:

effect of a mutation on the interaction (PKD2, Q13563-1 [1]): disrupting interaction strength
Substance: Polycystin-1 (Homo sapiens) (from UniProt P98161-3) L4238A;E4239A

effect of a mutation on the interaction (PKD2, Q13563-1 [1]): decreasing interaction strength
Substance: Polycystin-1 (Homo sapiens) (from UniProt P98161-3) F4225A;L4228A

effect of a mutation on the interaction (PKD2, Q13563-1 [1]): decreasing interaction strength
Substance: Polycystin-1 (Homo sapiens) (from UniProt P98161-3) Y4236R

effect of a mutation on the interaction (PKD2, Q13563-1 [1]): decreasing interaction strength
Substance: Polycystin-1 (Homo sapiens) (from UniProt P98161-3) V4217A;L4228A

effect of a mutation on the interaction (PKD2, Q13563-1 [1]): decreasing interaction strength
Substance: Polycystin-1 (Homo sapiens) (from UniProt P98161-3) L4238A;L4242A;L4245A

effect of a mutation on the interaction (PKD2, Q13563-1 [2]): decreasing interaction strength
Substance: Polycystin-1 (Mus musculus), O08852 L4229A;E4230A

effect of a mutation on the interaction (PKD2, Q13563-1 [1]): decreasing interaction strength
Substance: Polycystin-1 (Homo sapiens) (from UniProt P98161-3) L4238A
